Data taken from patent CN113512113A (THE FIRST AFFILIATED HOSPITAL COLLEGE OF MEDICINE ZHEJIANG …, dated 2021).

B1: SW-B1 (antibody, V domains shown)
VH: QVQLVQSGAEVKKPGASVKVSCTASGDTFTTYYMNWMRQAPGQGLEWMGIINPSGGSTSYAQKFQGRVTMTRDTSRSTVYMELSSLRSEDTAVYYCATPSLEEAEGGPQLAFDIWGQGTMVTVSS
VL: not shown
B2: SW-A9 (antibody, V domains shown)
VH: QMQLVQSGPEVKKPGTSVKVSCKASGFTFTNSAMQWVRQARGQRLEWVGWIVVASGNANSARRFHDRVTITSDMSTSTAYLELSSLRSEDTAVYYCALNHCSNTTCLDGFDIWGQGTMVSVSS
VL: EIVLTQSPVTLSLSPGERATLSCRASQSVRNSLLAWYQQKPGQAPRLLIYAASSRATGIPDRFSGSGSGTDFTLTISRLEPEDFVVYYCQQHGSSPPWTFGQGTKVEFKR
B3: CZ-D7 (antibody, V domains shown)
VH: QVQLVQSGAEVKTPGSSVKVSCKASGGSFSNYAISWVRQAPGQGLEWMGRIIATLGISNYAQKFQGRVTMTADKSTSTAYMELSSLRSEDTAVYYCASPITNFGVLIEVDAFHIWGQGTMVTVSS
VL: EIVLTQSPFTLSLSPGERATLSCGASQSVSSSYLAWYQQKPGLAPRLLIYDGSSRATDIPDRFSGSGSGTDFTLTISRLEPEDFAMYYCQQYSTSPLTFGGGTKVEIKR

The binders below were run against SARS-Cov-2的生物素化RBD(NC_045512) (SARS-CoV-2, UniProt P0DTC2 319-541).

Binder | Kd [pM]
B1 | 94.3
B2 | < 1
B3 | < 1
